Experimental data from patent publication US5262522A, “Receptor for oncostatin M and leukemia inhibitory factor” (Immunex Corporation, priority 1991, dated 1993).

Assays:
oncostatin M = experiment: Oncostatin M binding assay (phthalate oil separation, Scatchard) on transfected COS-7 cells; conditions: 125I-oncostatin M, compared with non-transfected COS-7 cells
Text: Oncostatin M may be purified from cells in which the protein is naturally found, or from cells transformed with an expression vector encoding oncostatin M. One source of oncostatin M is phorbol ester-treated U937 cells, as described by Zarling et al., PNAS U.S.A. 83:9739 (1986). Purification of recombinant oncostatin M is described by Linsley et al., J. Biol. Chem. 264:4282-4289 (1989), which is hereby incorporated by reference in its entirety.
Oncostatin M may be radiolabeled using any suitable conventional procedure, such as the radioiodination procedure employed to radiolabel LIF in Example 1. The radio-iodination of oncostatin M has also been described by Linsley et al., supra.
The resulting radiolabeled oncostatin M may be substituted for radiolabeled LIF (using the same concentrations and other reaction parameters) in the assay procedures described in Example 1 in order to detect proteins and cells that bind oncostatin M. An assay for binding of ^125 I-oncostatin M to cells is also described in Linsley et al., supra.
COS-7 cells transfected with vector(s) encoding gp130 or LIF-R were assayed for the ability to bind oncostatin M. In separate transfections, COS-7 cells were transfected with the following combinations of vectors. […]

Recombinant human LIF = experiment: LIF binding assay (phthalate oil separation, Scatchard) on transfected COS-7 cells
Protocol: Recombinant human LIF is expressed in yeast and purified to homogeneity essentially as described by Hopp, et al., Bio/Technology 6:1204 (1988). The purified protein is radiolabeled using a commercially available enzymobead radioiodination reagent (BioRad). In this procedure 10 μg LIF in 50 μl 0.2M sodium phosphate, pH 7.2, are combined with 50 μl enzymobead reagent, 2 mCi of sodium iodide in 20 μl of 0.05M sodium phosphate pH 7.0 and 10 μl of 2.5% β-D-glucose. After 10 minutes at 25° C., sodium azide (20 μl of 50 mM) and sodium metabisulfite (10 μl of 5 mg/ml) are added and incubation is continued for 5 min. at 25° C. The reaction mixture is fractionated by gel filtration on a 2 ml bed volume of Sephadex® G-25 (Sigma) equilibrated in Roswell Park Memorial Institute (RPMI) 1640 medium containing 2.5% (w/v) bovine serum albumin (BSA), 0.2% (w/v) sodium azide and 20 mM Hepes pH 7.4 (binding medium). […]
The cells were separated from unbound ^125 I-LIF by centrifugation for five minutes at 15,000×g in an Eppendorf microfuge. […] The radioactivity in both parts was then determined on a gamma counter. The determinations of both cell-bound and unbound radioactivity from the two 60 μl aliquots were averaged for subsequent calculations. […]

| Molecule | binding of oncostatin M (oncostatin M) | binding of LIF after preincubation with oncostatin M (Recombinant human LIF; cells transfected with pHLIFR-65 and CAV, preincubated with non-radiolabeled oncostatin M (curve D)) | binding of LIF (Recombinant human LIF; 125I-LIF, COS-7 cells, compared with non-transfected COS-7 cells) |
| --- | --- | --- | --- |
| LIF-R: human leukemia inhibitory factor receptor fragment encoded by cDNA clone pHLIFR-65 (SEQ ID NO: 6), expressed on COS-7 cells (protein) QKKGAPHDLKCVTNNLQVWNCSWKAPSGTGRGTDYEVCIENRSRSCYQLEKTSIKIPALSHGDYEITINSLHDFGSSTSKFTLNEQNVSLIPDTPEILNLSADFSTSTLYLKWNDRGSVFPHRSNVIWEIKVLRKESMELVKLVTHNTTLNGKDTLHHWSWASDMPLECAIHFVEIRCYIDNLHFSGLEEWSDWSPVKNISWIPDSQTKVFPQDKVILVGSDITFCCVSQEKVLSALIGHTNCPLIHLDGENVAIKIRNISVSASSGTNVVFTTEDNIFGTVIFAGYPPDTPQQLNCETHDLKEIICSWNPGRVTALVGPRATSYTLVESFSGKYVRLKRAEAPTNESYQLLFQMLPNQEIYNFTLNAHNPLGRSQSTILVNITEKVYPHTPTSFKVKDINSTAVKLSWHLPGNFAKINFLCEIEIKKSNSVQEQRNVTIKGVENSSYLVALDKLNPYTLYTFRIRCSTETFWKWSKWSNKKQHLTTEASPSKGPDTWREWSSDGKNLIIYWKPLPINEANGKILSYNVSCSSDEETQSLSEIPDPQHKAEIRLDKNDYIISVVAKNSVGSSPPSKIASMEIPNDDLKIEQVVGMGKGILLTWHYDPNMTCDYVIKWCNSSRSEPCLMDWRKVPSNSTETVIESDEFRPGIRYNFFLYGCRNQGYQLLRSMIGYIEELAPIVAPNFTVEDTSADSILVKWEDIPVEELRGFLRGYLFYFGKGERDTSKMRVLESGRSDIKVKNITDISQKTLRIADLQGKTSYHLVLRAYTDGGVGPEKSMYVVTKENSVGLIIAILIPVAVAVIVGVVTSILCYRKREWIKETFYPDIPNPENCKALQFQKSVCEGSSALKTLEMNPCTPNNVEVLETRSAFPKIEDTEIISPVAERPEDRSDAEPENHVVVSYCPPIIEEEIPNPAADEAGGTAQVIYIDVQSMYQPQAKPEEKKKKSRSSRSKI | did not bind oncostatin M in any significant amount above that bound by the non-transfected COS-7 cells | essentially unchanged |  |
| gp130: truncated human gp130 polypeptide encoded by plasmid B10G (SEQ ID NO: 2), expressed on COS-7 cells (protein) ELLDPCGYISPESPVVQLHSNFTAVCVLKEKCMDYFHVNANYIVWKTNHFTIPKEQYTIINRTASSVTFTDIASLNIQLTCNILTFGQLEQNVYGITIISGLPPEKPKNLSCIVNEGKKMRCEWDGGRETHLETNFTLKSEWATHKFADCKAKRDTPTSCTVDYSTVYFVNIEVWVEAENALGKVTSDHINFDPVYKVKPNPPHNLSVINSEELSSILKLTWTNPSIKSVIILKYNIQYRTKDASTWSQIPPEDTASTRSSFTVQDLKPFTEYVFRIRCMKEDGKGYWSDWSEEASGITYEDRPSKAPSFWYKIDPSHTQGYRTVQLVWKTLPPFEANGKILDYEVTLTRWKSHLQNYTVNATKLTVNLTNDRYLATLTVRNLVGKSDAAVLTIPACDFQATHPVMDLKAFPKDNMLWVEWTTPRESVKKYILEWCVLSDKAPCITDWQQEDGTVHRTYLRGNLAESKCYLITVTPVYADGPGSPESIKAYLKQAPPSKGPTVRTKKVGKNEAVLEWDQLPVDVQNGFIRNYTIFYRTIIGNETAVNVDSSHTEYTLSSLTSDTLYMVRMAAYTDEGGKDGPEFTFTTPKFAQGEIEAIVVPVCLAFLLTTLLGVLFCFNKRDLIKKHIWPNVPDPSKSHIAQWSPHTPPRHNFNSKDQMYSDGNFTDVSVVEIEANDKKPFPEDL |  |  | did not bind LIF in any measurable amount above the amount of binding to the non-transfected COS-7 cells |
